Reference: publication PMC4753561
Values joined by “and” are separate entries in the source; they are usually repeats but may differ in a detail not shown here. Equal values may be shown once. Read-outs that look alike come from different tables or passages of the source.

Experiments:
[1] = biological target: Hepatitis B Virus core protein assembly domain (Cp149) dimer (Hepatitis B Virus); assay: resistive-pulse sensing
[2] = biological target: Hepatitis B Virus core protein assembly domain (Cp149) dimer (Hepatitis B Virus); assay: resistive-pulse sensing; remark: listed apart in the source
[3] = biological target: Hepatitis B Virus core protein assembly domain (Cp149) dimer (Hepatitis B Virus); assay: SEC

Substance: Hepatitis B Virus core protein assembly domain (Cp149) dimer (domain or fragment)
- pseudo-critical dimer concentration [1]: 0.5 µM
- stoichiometry N [1]: 105 dimers and 77 dimers
- stoichiometry N [2]: 90 subunit and 120 subunit
- pseudo-critical dimer concentration [3]: 0.5 µM
